Test results as given in patent US20240409645A1.

T1: mouse IL-2Rβ (mouse) (UniProt P16297)
T1 sequence (looked up): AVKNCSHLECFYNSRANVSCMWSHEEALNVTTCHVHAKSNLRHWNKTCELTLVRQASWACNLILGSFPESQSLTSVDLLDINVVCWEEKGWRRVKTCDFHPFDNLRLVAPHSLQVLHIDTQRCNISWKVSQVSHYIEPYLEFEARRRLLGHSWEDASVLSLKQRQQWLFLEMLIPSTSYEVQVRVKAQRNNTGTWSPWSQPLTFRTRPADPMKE

T2: mouse IL-2Rγ (mouse) (UniProt P34902)
T2 sequence (looked up): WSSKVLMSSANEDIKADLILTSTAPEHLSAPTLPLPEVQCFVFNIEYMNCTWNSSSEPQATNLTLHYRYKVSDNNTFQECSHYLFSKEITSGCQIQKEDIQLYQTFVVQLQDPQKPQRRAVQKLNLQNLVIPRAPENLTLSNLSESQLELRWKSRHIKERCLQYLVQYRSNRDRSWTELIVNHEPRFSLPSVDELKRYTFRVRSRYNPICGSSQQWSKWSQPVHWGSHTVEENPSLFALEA

T3: mouse common cytokine receptor γ-chain (IL-2Rγ) (mouse) (UniProt P34902)
T3 sequence (looked up): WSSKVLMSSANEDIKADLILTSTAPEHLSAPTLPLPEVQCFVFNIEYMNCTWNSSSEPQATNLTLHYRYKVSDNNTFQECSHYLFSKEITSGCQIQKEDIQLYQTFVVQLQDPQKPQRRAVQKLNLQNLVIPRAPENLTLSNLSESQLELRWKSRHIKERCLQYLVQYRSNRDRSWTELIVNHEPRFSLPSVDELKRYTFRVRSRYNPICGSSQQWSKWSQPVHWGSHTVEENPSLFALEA


How the values were obtained:
mouse IL-2Rβ (mouse) = molecular target: T1, mouse IL-2Rβ (mouse); experiment: P.E. binding ELISA, mouse IL-2Rβ coated
mouse IL-2Rγ (mouse) = molecular target: T2, mouse IL-2Rγ (mouse); experiment: P.E. binding ELISA
[1] = molecular target: T3, mouse common cytokine receptor γ-chain (IL-2Rγ) (mouse); experiment: P.E. binding ELISA

| OD450 nm (mouse IL-2Rγ (mouse)) [OD450 nm] | Binder | also measured |
| --- | --- | --- |
|  | FJ1427_P035MP06F09 (VHH) VHH: QVQLVESGGGLVQAGGSLTLSCAASGRAFSNYPVGWFRQAPGKEREFVAAITWLSGSTLYADSVEGRFTISRDNAKNTVYLLMSSLKPEDTALYFCAAALKTITRGQNDYSYWGQGTQVTVSS | OD450 nm (P.E. binding ELISA) (mouse IL-2Rβ (mouse)): 0.046 OD450 nm |
| 0.048 | 27-MP04G01 VHH (periplasmic extract) (VHH) VHH: QVQLVESGGGLVQAGGSLTLSCAAPGRTFGTDVVGWFRQAPGKEREFVASISRSGDGIYYDDSVKGRFTISRNNAWNTVNLQMNSLKVEDTAVYYCAAGDGWSTYDYWGQGTQVTVSS |  |
|  | FJ1427 P035MP06A08 (VHH) VHH: EVQLVESGGGLVQAGESLRLSCAASGQYFSTYSMAWFRRTPGKEREFVTIISESGGIKEYVDSVKGRFTVSRDNAKNTVYLQMNSLKPEDTAVYYCAAARDWFARNEYQYDYWGQGTQVTVSS | OD450 nm (P.E. binding ELISA) (mouse IL-2Rβ (mouse)): 0.047 OD450 nm |
| 0.045 | 35-MP07G01 VHH (periplasmic extract) (VHH) VHH: QVQLQESGGGLVQGGGSLRLSCAASGGIFSSYAMGWFRQAPGKEREFVAAISRSGRSTNYADSVKGRFTISRDNAKSTVYLQMNSLKPEETAVYYCAAGRYYNSAYDPSPGDFGSWGHGTQVTVSS |  |
|  | FJ1427_P035MP04F12 (VHH) VHH: QVQLQESGGGWVQVGESLRLSCVPSGRTFVSGIMGWFRQAPGKEREFVARIILNNNSTRYTDSVKGRFTISRDSAKNTMYLQMNTLRPEDTAVYYCAARDRYGSGNSLSPSAYDYWGQGTQVTVSS | PE binding ELISA OD [1]: 0.049 OD450 nm |
|  | FJ1427_P035MP07C02 (VHH) VHH: EVQLVESGGGWVQVGESLRLSCAPSGRTFVSGIMGWFRQTPGKEREFVARIILNNNSTRYTDSVKGRFTISRDSAKNTMYLQMNTLRPEDTAVYYCAARDRYGSGNSLSPSAYDYWGQGTQVTVSS | PE binding ELISA OD [1]: 0.044 OD450 nm |
| 0.05 | 29-MP04H02 VHH (periplasmic extract) (VHH) VHH: QVQLVESGGGLVQAGGSLRLACVASGLTFDNYYMGWFRQAPGKEREFVAGIIWNGDHTAYADSIKGRFTISRDNAKNTAYLRMNSLKPEDTAVYYCAATFWIERATTPDIGQYAYWGQGTQVTVSS |  |
| 0.05 | 32-MP04A08 VHH (periplasmic extract) (VHH) VHH: QVQLVESGGGLVQAGGSLRLSCAASGRTFGSTAVGWFRQVPGKEREFVSAINRSGSATTYADSVKGRFTISRDNAKNTVYLQMNSLTPEDTGVYYCAADSLPYGRPYYFQRSAGEYDYWGQGTQVTVSS |  |
